Experimental findings from paper PMC4589357, “The Role of Electrostatic Interactions in Binding of Histone H3K4me2/3 to the Sgf29 Tandem Tudor Domain” (PLoS ONE, 2015) are described below.

B1: WT: Wild-type Sgf29 reader domain protein (Homo sapiens, residues 115–293) (protein)
chain: RRGVLMTLLQQSAMTLPLWIGKPGDKPPPLCGAIPASGDYVARPGDKVAARVKAVDGDEQWILAEVVSYSHATNKYEVDDIDEEGKERHTLSRRRVIPLPQWKANPETDPEALFQKEQLVLALYPQTTCFYRALIHAPPQRPQDDYSVLFEDTSYADGYSPPLNVAQRYVVACKEPKKK
modifications: left off: 6xHis, end not stated, cleaved
B2: D266Y: Sgf29 variant, D266 substituted by tyrosine (protein)
chain: B1 chain with D152Y
modifications: left off: 6xHis, end not stated, cleaved
notes: Sgf29 variant, D266 substituted by tyrosine
B3: Y245F: Sgf29 variant, Y245 substitution (Y245F) (protein)
chain: B1 chain with Y131F
modifications: left off: 6xHis, end not stated, cleaved
B4: Y238F: Sgf29 variant, Y238 substituted by phenylalanine (protein)
chain: B1 chain with Y124F
modifications: left off: 6xHis, end not stated, cleaved
notes: Sgf29 variant, Y238 substituted by phenylalanine
B5: D266E: Sgf29 variant, substitution of D266 by glutamic acid (protein)
chain: B1 chain with D152E
modifications: left off: 6xHis, end not stated, cleaved
notes: Sgf29 variant, substitution of D266 by glutamic acid
B6: D266N: Sgf29 variant, D266 substituted by asparagine (protein)
chain: B1 chain with D152N
modifications: left off: 6xHis, end not stated, cleaved
notes: Sgf29 variant, D266 substituted by asparagine
B7: D266F: Sgf29 variant, D266 substituted by phenylalanine (protein)
chain: B1 chain with D152F
modifications: left off: 6xHis, end not stated, cleaved
notes: Sgf29 variant, D266 substituted by phenylalanine
B8: D266W: Sgf29 variant, D266 substituted by tryptophan (protein)
chain: B1 chain with D152W
modifications: left off: 6xHis, end not stated, cleaved
notes: Sgf29 variant, D266 substituted by tryptophan
B9: D266A: Sgf29 variant, D266 substituted by alanine (protein)
chain: B1 chain with D152A
modifications: left off: 6xHis, end not stated, cleaved
notes: Sgf29 variant, D266 substituted by alanine
B10: 7-mer H3K4me3 peptide ARTKme3QTA (peptide)
peptide: ARTK(Me3″)QTA
notes: histone H3 N-terminal tail, 7-mer, K4 trimethylated, lacks the last three residues of the 10-mer; The synthesis is described only for the two native 10-mer peptides; also called 7-mer peptide
B11: 10-mer H3K4me3 peptide that contains G instead of R at position 8 (ARTKme3QTAGKS) (peptide)
peptide: ART[Lys(Me3)]QTAGKS
notes: The synthesis is described only for the two native 10-mer peptides

Changes are numbered by the printed parent chain. Numbers in names are those of the source. Non-standard residues stand in square brackets, D forms with d. Primed or numbered codes have the meaning given here. No end group written: not given here. Lys(Me3) = C[N+](C)(C)CCCC[C@H](N)C(=O)O; Me3″ = trimethyl-lysine

Usually Tm stands for the temperature at the midpoint of the melting transition. What is called Kd is the concentration at which binding is half-saturated. Higher therefore signals lower affinity.

Tested on in the first series: not listed separately
In words: Differential scanning fluorimetry (DSF) melting temperature of Sgf29 and variants. The series is classed as physicochemical, Homo sapiens. The conditions noted are these: SYPRO-Orange fluorescence, 25 mM TRIS pH 7.5, 50 mM NaCl, 1 mM DTT, 2.5 μl of 25 μM protein in 25 μl, 20–95°C, 1°C min^-1, ± SD, measured in triplicate. How it is done:
Wild-type and variant Sgf29 reader domain proteins (Homo sapiens, residues 115–293) were expressed in terrific broth (TB) medium containing 50 μg ml^-1 kanamycin, using E. coli Rosetta BL21 DE3 PlysS as expression host. Bacteria were cultured to OD600 ≈ 0.6 at 37°C, 200 rpm after which the cultures were induced using 1 mM IPTG (final conc.). Cultures were then incubated at 16°C for 16 hours. Cells were harvested and lysed by sonication in 1x PBS, 250 mM NaCl, 5% glycerol, 0.2% CHAPS, 10mM β-mercaptoethanol. Lysate was centrifuged and the supernatant purified using Ni-NTA beads. The 6xHis tag was cleaved off overnight at 4°C using TEV-protease. Size exclusion chromatography, using a superdex 75 column, was employed as a final purification step with 25 mM TRIS pH 8.0, 50 mM NaCl, 1 mM DTT as eluent. Protein concentrations were determined by UV/Vis spectroscopy at 280 nm.
Sgf29 protein melt curves were obtained as described by Reinhard et. al. using a StepOne-Plus Real-Time PCR system (Applied Biosystems) and MicroAmp fast optical 96-well reaction plates (Applied Biosystems). SYPRO-Orange protein gel stain (Invitrogen) was used as a reporter dye, emitting fluorescence in the FAM channel. Total reaction volume was 25 μl; 20 μl buffer (25 mM TRIS pH 7.5, 50 mM NaCl, 1 mM DTT), 2.5 μl of 25 μM protein and 2.5 μl SYPRO-Orange dye (diluted 1:100 in ddH2O). Melt curve data were obtained in triplicate, in a temperature range of 20–95°C at a step-wise temperature increment of 1°C min^-1. Obtained data were analyzed using DSF Analysis v3.0.2 software, designed by Niesen et. al. (available via ftp://ftp.sgc.ox.ac.uk/pub/biophysics/).
A general note: DSF heats the sample and reads unfolding from a dye or from intrinsic fluorescence.
Take B1: the Tm stood at 57.8 ± 0.1 °C.

As to B2, the Tm worked out at 54.5 ± 0.2 °C.

With B3, the Tm turned out to be 56.4 ± 0.1 °C.

Consider B4, for which the Tm was found to be 56.5 ± 0.2 °C.

Turning to B5, the melting temperature (Tm) is 57.7 ± 0.1 °C.

As to B6, the Tm is 56.4 ± 0.1 °C.

Turning to B7, the Tm came out at 53.9 ± 0.5 °C.

For the molecule B8, the Tm turned out to be 55.5 ± 0.1 °C.

On to B9, for which the Tm stood at 55.8 ± 0.3 °C.

Staying with this series, now noted: SYPRO-Orange fluorescence, 25 mM TRIS pH 7.5, 50 mM NaCl, 1 mM DTT, 2.5 μl of 25 μM protein in 25 μl, 20–95°C, 1°C min^-1, ± SD, measured in triplicate, listed as WT Sgf29.
As to B1, the Tm turned out to be 57.8 °C.

Staying with this series, now noted: relative to WT Sgf29.
Turning to B2, the “decrease in Tm relative to WT Sgf29” value turned out to be 3.9 °C.

Regarding B7, the “decrease in Tm relative to WT Sgf29” value was 3.3 °C.

Turning to B8, the “decrease in Tm relative to WT Sgf29” value came to 2.3 °C.

The target in another series is T1, Wild-type Sgf29 (SAGA-associated Factor 29) tandem tudor domain, residues 115-293 (human, UniProt Q96ES7 115-293).
T1 construct: also called WT Sgf29; WT; source: E. coli Rosetta BL21 DE3 PlysS, purified (Ni-NTA, TEV cleavage, SEC Superdex 75)
T1 sequence (looked up): B1 chain
In words: ITC; peptide (generally 1.2 mM) titrated to protein (100 uM); for variants of low affinity 2.4 mM peptide to 200 uM protein; 25 mM TRIS pH 8.0, 50 mM NaCl, 1 mM DTT; one-site model. As to conditions: both partners purified. For orientation: ITC needs no label: the signal is the heat of the interaction.
B10 showed a Kd of 9 ± 0.5 µM and a dH of -7.8 ± 0.1 kcal/mol.

B11 gave a Kd of 4 ± 0.6 µM and a dH of -8 ± 0.1 kcal/mol.
